Data taken from a protein production outcome set (Wang et al. 2014).

Test: label from the status in PepcDB records

| Sequence | protein production |
| --- | --- |
| MHKVVIVGRPNVGKSSLFNRLLKKRSAVVADVPGVTRDLKEGVVETDRGRFLLVDTGGLWSGDKWEKKIQEKVDRALEDAEVVLFAVDGRAELTQADYEVAEYLRRKGKPVILVATKVDDPKHELYLGPLYGLGFGDPIPTSSEHARGLEELLEAIWERLPVRQIETEPEVAGIRLAIVGRPNAGKSSLLNAILGEERVIVSEEPGTTRDAIDVEFFFGGQRFVLVDTAGIRKRPENLVEELAIRRSLRAMDEADVVLLVVDPFQVGDRELKLANEALDRGKPVLLVITKWDLVDKEDAPKMRRLLREKLAHLDHLPRVFTSALTRQNLDRIFREAVRLHELNQTRVPTAELNRWVAVWTSRVQMPNFKGKPLKILYATQPEVAPPTFVFFVNHPEFVTRAFENYLKNRIGEDLGLREVPFRLVFRGRREE | not failed |
| MEIIAAILVGIVALEHLFIMILEMFFMNSKVAKRAFKLPEHLEGDRNVAIMFANQGLYNGFLAVGLIWGLILGFNSIGYMVQLFFVMCVVVAALFGGFTSNKSIIVKQGLPAILALIALLIVI | failed |
| MLSRLFLLFALVPFLELYLLVQVGTVIGAAPTILLVILTAVVGAWLARTQGLGVMARVQNDLARGIMPGQALIDGFCILLAGLLLLTPGFLTDVVGLLLLLPPFRALLASRLQRHFAVRYASSGTTAEGGHFIVYGSSGPAAHEEPRHAVVIDTQPIDSSSAATGLADDTKPLGDAQPSGDGRPRS | failed |
| MTLFTLLLTLAWERLFKQGEHWQIDHRLEVIFRHVSPPSLFQTLFLTLCSMGVVAALLWLTSGILFGLISLLLWIVISLMCIGAGEIRQHYRRYLQAAQRGESDASREMAAELALIHGLPVGTSESEQLKELQNALLWINFRFYLAPLFWFVVAGPYGPVTLMGYAFLRARQTWLARHHTPLERAQSGVDSLLHWLDWIPARLAGAAYALLGHGEKALPAWFASLGDSRSSQYWVLTQLAQFSLARESHIEPVETPKAAVTLAKKVTLVLVVVVALLTIYGALV | failed |
| MNSLQILSFVGFTLLVAVITWWKVRKTDTGSQQGYFLAGRSLKAPVIAASLMLTNLSTEQLVGLSGQAYKSGMSVMGWEVTSAVTLIFLALIFLPRYLKRGIATIPDFLEERYDKTTRIIIDFCFLIATGVCFLPIVLYSGALALNSLFHVGESLQISHGAAIWLLVILLGLAGILYAVIGGLRAMAVADSINGIGLVIGGLMVPVFGLIAMGKGSFMQGIEQLTTVHAEKLNSIGGPTDPLPIGAAFTGLILVNTFYWCTNQGIVQRTLASKSLAEGQKGALLTAVLKMLDPLVLVLPGLIAFHLYQDLPKADMAYPTLVNNVLPVPMVGFFGAVLFGAVISTFNGFLNSASTLFSMGIYRRIINQNAEPQQLVTVGRKFGFFIAIVSVLVAPWIANAPQGLYSWMKQLNGIYNVPLVTIIIMGFFFPRIPALAAKVAMGIGIISYITINYLVKFDFHFLYVLACTFCINVVVMLVIGFIKPRATPFTFKDAFAVDMKPWKNVKIASIGILFAMIGVYAGLAEFGGYGTRWLAMISYFIAAVVIVYLIFDSWRHRHDPAVTFTPDGKDSL | failed |
| GMKTSGKQDEAWIMSRLIKQLTDMGFPREPAEEALKSNNMNLDQAMSALLEKKVDVDKRGLGVTDHNGMAAK | not failed |
| MDTMSQILKLLEKTDSIEINEFRMDVDELELTIMPTLQNVVQKVVEKQIEAKKEFESQIEFKYPVKDYAGKVNEVKLGGKNRKTVKLGGQTSLYRFEEPQPNAPTVTFDVFDIPMNGLPRPIKENFEDVMHSPGEWAQKAVKEFGADMITLHLIGTDPKVKDKSLKDAAKDLEEVLQAVKVPLVIGGSGNPKKDPLVLEMAAEVADGERCLLASANLDLDYQKIAQAAVKHDHAVLSWAISDINMQKVLNKALMKEGLTANDIVMDPTTCALGYGIEFSIDVMTRTRLSALKGDEILQMPMSSGTTNAWGSREAWMKKDEWGPTKYRGPIWEVVTGLTMMLCGVDIFMMLHPLSVKTLKEIGTTLTYEYKSKESQDISDWINKF | not failed |
| MNINEKAIEMFEQNKYEEAMELFQQAVHKSRDVQSLNNLAWMYFYEEENDEKALELIREVVKLNPSSYFPYNILGEIYIKQKKWEEAKEVLQKSISIQPSDEAYHNVAVAHYNLGELEKASDFFLRVAGDSDYIMYSYVKCLIDLERTTEAKEKLDTFNRESDNFLGEINVADLYVELNCYKEAIEWFEKGYKECWKSPNWIGRFVYALYKTNNFSRINEVIRECIEAKTAEIEDVQNEEVEENWTENDKKELIEEYTEENNCYKTMVERIKSGYVPGLEFETDYIGACYLFGCKRHNHLEYEK | failed |
| MTADRPLLGIFLMLGFCVLAPMGDALAKLLGGTMPTMQLLLVRFAIQAVILIPLVQATGRPWQLRGRLLRLTALRTLLHIVGIWAMFTALRYLPLADAIAIAFVMPFIMLLLGKYVLGEEVGPRRLGACIVGFAGTLLVIQPSFAEVGLPALLPLLVAVVFALFMLVTRQLAKDTDPIALQAVSGVMACVALTPVLLIGHAAGVEALTLVTASGTTLWLLLAIGVLGTAAHLLMTWSLRYAPSATLAPMQYLEIPVATAIGWLIFHDLPNGLAALGILITMAAGLYVILREQATARSAATETSG | failed |
| MPDNEVDLLFAQLSPEDLIEWSDYLPESFTDRALAQMGERQRQRFELYDQYSENEIGRYTDHQMLVLSDKATVAQAQRFFRRIELDCNDNLFIVDEADKYLGTVRRYDIFKHEPHEPLISLLSEDSRALTANTTLLDAAEAIEHSREIELPVIDDAGELIGRVTLRAATALVREHYEAQLMATAGMDESDDLFAPILKGAQRRAVWLGINLLTAFLASATIGLFENVLSQVVALAVLMPIVASMGGIAGSQSLTLMIRGMAMGQISAGNLFSLMKNELGIGLVNGTLWAIVIGLVAGWWFADSIIGIVIGCAILINMAVAALAGVFVPMIL | failed |
| MGHHHHHHSHGSYANEISSSIIINRPAERLFDLWRKPETLPILMGHFASIEILNHTDSNWRINTPIGSLIEWQARIIDEKPGEYIHWRSLEGARVPNEGRLSFQPAASEAGTAVTLTIRYNPPGGLIGKKIGQMFDMFSRDMLTKTLYRFKKLAEDER | not failed |
| KQLGPHTYLVSGRMEIDDVNERFGLSLPESDDYLTVAGFILNSHQNIPQANEVVEIAPYTFTILRSSSTKIELVKMSIDD | not failed |
| MAGKRKSRRGFGRVRKLPSGRFQARYPGPDGVLRPADRTFATTTDADRWLMRKRIEIEEGCWLDPAEGQTTVRDWAARWLAAVSPQLKHKTQASYRSLINSLINPVLGDRELSSLRPITVTEWVGAMRTKGLSASRIRQAYRVLSQIMRSAVDNDMIPQTPCRGVRLPRMPQTEPHILTPLEASRIVKGATKPHDLLIALLAYAGLRVGEAFALRRVDVDVSGGFVLVDENLAEANGVLVFDTPKSHQKRLLRVGPSLAKRLGRHLETLPGGDDALLFTTPGGKPLRYNQWRKAYFDPAVSAAGLTDVTPHDLRASHGTWVADRYGVMTAAHRLGHSNASVTTRHYARPVAGRDDQVAEAADSWLSGSEDNDDGSAAVPA | failed |
| MSTVNNHRVVIRRRKVRRGGHHGGSWKIAYADFITAMMAFFLVMWLISIVPREELKGIAEYFRMPLRVALTGGPSSSAETSAIPGGGQDPLRSQGDVRRAEGNRVEAQPMGDAERRDRHRLERLKVRLENLIEESPVLKNFRPQLLIDMTTEGLRIQIVDNQNRPMFATGSADVQPYMRDILRELGPVLNDLPNKISIAGHTDASQYARGERAYSNWELSADRANASRQELVAGGMHEGKVLRIQGLASSMSLVKDDPFAAVNRRISLVVLNASTQRRIENENAAAADVNARDAQGVGAALAGQLAASGSDGGAR | failed |
| MFCTLAGYRWLNSGSLLRRLSQRAVRRLPTAPLCHLHNGATESAASNGALRIVDEKVAYRRYATVFERTVQYPDGRHVTYDILGQPAVQSASVLVFPFDTQSKTCYVIREYCPGPNRVLYGFPAGMVETKHESLEAAARAELSEEAHLRCAQLIDLTAQAAVWERSFEVPNTASDAENCLRGFFADKYSRNVCKMYLALNPEPDGHPGSMDAEELIEQVGAVRVPQLEAWLWSGQMTMPHMLLAMCALTYLRQRGMLT | failed |
| MAHATPPSALEQGGPIRVEHDRQRRQFSVRLNGCHDRAVLLYEYVGKRIVDLQHTEVPDAYRGRGIAKHLAKAALDFVVEEDLKAHLTCWYIQKYVKENPLPQYLERLQP | failed |
| MKTDIILAGVGGQGILSIAAAIGSAALTNNLYLKQAETHGMSQRGGDVQSFLRLSDAPIYSDLIPIGGADLILSVEPMEALRYLPYLKPDGYVVTNTVPFINIPNYPETTSVISKIESLPHHVLIDADSIARDEVGNVRASNFVMLGAASPFIEIPFDYLAGGIEAIFSRKGQEVVDMNLKALNAGREFALRYAAGK | not failed |
| MDRNIDQELVSIIIPTHNRYESLIRAVKSCLHQSYKNIEVIIIDDNYSNVNLRNKIIHQFGYTNHRIKLILSNEDLGATNARNIGIKNSRGKYISFLDDDDEYMPDRILKLMACFKKSRMKNLALVCSYGIIIYPNGTREEEKTDFVGNPLFVQMVHNIAGTSFWLCKKEVLELINGFEKIDSHQDGVVLLKLLVQGYQIDIVREFLVNYYAHSKENGITGVTQKTINADEEYYNYCRKYFNLLSFNERILVTKKYYSLNIKRLLLIGDKCKALKVIKKAREEKIFNEFLF | failed |
| MSNTYLASMALMGALVVAVVTWMVRGRGWYHYSPGSSTSGRSPTSDRESRFETYADQPMVWVGAFAVLVVGLLVGVVASISGPVETQSIAGLAVAVVGGAGLCGYLLFGVYLSATRRGHPRSLAVAESATVAGVLFLIAVGFQLVGA | failed |
| MTVKAMALNTNQLFAYLNRGDIAEFKFSPLFTTLFFPNVATFSTQNIMLDTLDIEEVTMSAFCSPMVGSQVQRDKGYETSTIKPGYMKPKHEIDPTKTIMRMAGEDPAQLNDPTYRRMRLITGNMRRQINAIKARVEWLAVNAVTTGKNIIEGEGIERYEIDWKIPEKNIIEQADGKKWSEQDKETHYPIYDIELYADQAGCPANVMIMGAEVWRTLRSFKKFRELYDLSRGSESAAELACKNLGEVVSFKGYLGDLALIVYSGKYTDSDGTEKYFLEPDLLVLGNTNNKGLVAYGAIMDQEAVRTGATQNMFYPKNWIEDGDPAIEYVQTHSAPQPVPADIRKFVTVKIA | not failed |
| MADRPIEIVDRQNVLTVHLPGTYTVMYDARYCYVSYIPVSETVAEFTLTGFKYPLTNCHISRGSTLCISNELIQSSGTFSFSEGILMMIRSSDSLEHHHHHH | failed |
| MTSLTQRSSGLVQRRTEASRNAADKERAAGGGAGSSEDDAQSRRDEQDDDDKGDSKETRLTLMEEVLLLGLKDREGYTSFWNDCISSGLRGCMLIELALRGRLQLEACGMRRKSLLTRKVICKSDAPTGDVLLDEALKHVKETQPPETVQNWIELLSGETWNPLKLHYQLRNVRERLAKNLVEKGVLTTEKQNFLLFDMTTHPLTNNNIKQRLIKKVQEAVLDKWVNDPHRMDRRLLALIYLAHASDVLENAFAPLLDEQYDLATKRVRQLLDLDPEVECLKANTNEVLWAVVAAFTK | failed |
| MSQEIAVIGSPAFTTGFQLAGVRKVENVADDEKDDDLDAAVEAVLADEDVGIAVMHDDDLAHLSRGVRQSVEASVEPTFVTIGGGASGASGLRDQIKRAIGIDLMDDDDDASAADTEAGDLEHHHHHH | not failed |
| MTSSSPPAIPADARRQHAERTTLVSAAVNCALSAGQIAAGLWSHSQGLVADGLHTLSDLIADGIVFIANRNSHKGPDEDHQYGHARYENAASLGLGLLLMAAGAGMIWSALASLSAPHGAAPVHGLALWVALAALAAKEGLFRYMLAVARRIGSRMLVANAWHARSDAVSSLVAAVGVAGNLMGFRWLDPVAACVVGAMIGRVGIRFGWEALNDLMDRALPPAQVQAIRASLAATPGVINVHDLRTRVTGDQALVDAHIEVDPRVSVSEGHAIAVRARANVLAAHTAMAVLDVQLHVDPRERVYTDPLPLPDRDALCAVLAQALPPGTPLDARHCLLHYVEGGVEVDLILPPSLADHAAPVAETVRARWHGRVRLRALTAASGATARGPVRP | failed |
